Measurements published in patent US20210292422A1 (SURROZEN, published 2021).

What was measured:
LRP6E3E4 [1] = biological target: T1, LRP6E3E4 (UniProt O75581 631-1246); assay: BLI (Octet), FIG. 12E
T1 construct: domain: E3E4
T1 sequence (looked up): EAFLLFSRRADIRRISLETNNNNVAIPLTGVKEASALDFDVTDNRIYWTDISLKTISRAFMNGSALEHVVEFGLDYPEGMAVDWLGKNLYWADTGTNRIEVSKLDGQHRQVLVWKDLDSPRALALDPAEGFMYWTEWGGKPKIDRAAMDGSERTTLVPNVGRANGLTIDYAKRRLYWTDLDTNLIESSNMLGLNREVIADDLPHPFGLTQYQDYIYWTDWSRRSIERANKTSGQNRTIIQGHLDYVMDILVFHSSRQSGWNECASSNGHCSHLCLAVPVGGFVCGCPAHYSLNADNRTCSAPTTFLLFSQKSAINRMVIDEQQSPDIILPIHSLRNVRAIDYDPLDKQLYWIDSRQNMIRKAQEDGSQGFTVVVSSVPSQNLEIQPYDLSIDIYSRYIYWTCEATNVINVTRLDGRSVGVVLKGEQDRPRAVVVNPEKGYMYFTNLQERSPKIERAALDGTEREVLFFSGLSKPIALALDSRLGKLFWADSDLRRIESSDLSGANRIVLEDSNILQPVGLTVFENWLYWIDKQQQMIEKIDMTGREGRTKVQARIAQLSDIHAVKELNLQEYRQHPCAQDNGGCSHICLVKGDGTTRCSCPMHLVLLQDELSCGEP

LRP6E1E2 = biological target: T2, LRP6E1E2 (UniProt O75581 20-630); assay: BLI (Octet), FIG. 12E
T2 construct: domain: E1E2; also called LRP6 E1E2 domains
T2 sequence (looked up): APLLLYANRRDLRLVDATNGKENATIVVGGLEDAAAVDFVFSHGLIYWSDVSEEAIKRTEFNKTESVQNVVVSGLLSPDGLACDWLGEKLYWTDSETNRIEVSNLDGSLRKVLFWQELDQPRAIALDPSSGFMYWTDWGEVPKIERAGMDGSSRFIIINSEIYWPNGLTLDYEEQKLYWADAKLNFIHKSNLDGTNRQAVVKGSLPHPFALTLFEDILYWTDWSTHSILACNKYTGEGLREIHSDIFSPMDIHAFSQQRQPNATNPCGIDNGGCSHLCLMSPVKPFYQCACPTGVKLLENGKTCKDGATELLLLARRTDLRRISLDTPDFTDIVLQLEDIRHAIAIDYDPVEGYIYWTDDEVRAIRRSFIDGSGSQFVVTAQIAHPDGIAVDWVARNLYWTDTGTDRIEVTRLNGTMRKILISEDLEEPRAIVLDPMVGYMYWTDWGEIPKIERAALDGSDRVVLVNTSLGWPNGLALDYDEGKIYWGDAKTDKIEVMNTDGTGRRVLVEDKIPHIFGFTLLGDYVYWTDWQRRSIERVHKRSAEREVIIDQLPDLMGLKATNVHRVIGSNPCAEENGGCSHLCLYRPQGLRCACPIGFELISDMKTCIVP

FZD8 CRD = biological target: T3, FZD8 CRD (UniProt Q9H461 30-151); assay: BLI (Octet), sequential: FZD8 CRD on sensor, tandem scFv, then LRP6 E3E4
T3 construct: domain: CRD
T3 sequence (looked up): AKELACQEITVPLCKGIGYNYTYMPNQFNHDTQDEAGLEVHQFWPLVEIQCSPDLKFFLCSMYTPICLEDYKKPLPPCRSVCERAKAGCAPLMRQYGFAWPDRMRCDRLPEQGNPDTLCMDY

LRP6E3E4 [2] = biological target: T1, LRP6E3E4; assay: as above

B1: L2:5:αGFP:Fc (bispecific antibody)
chain: EVQLVESGGGLVQPGGSLRLSCAASGFTFTSYYISWVRQAPGKGLEWVAEISPYSGSTYYADSVKGRFTISADTSKNTAYLQMNSLRAEDTAVYYCALRARPPIRLHPRGSVMDYWGQGTLVTVSSGSAASGSSGGSSSGADIQMTQSPSSLSASVGDRVTITCRASQDVSTAVAWYQQKPGKAPKLLIYSASFLYSGVPSRFSGSGSGTDFTLTISSLQPEDFATYYCQQSYTTPPTFGQGTKVEIKGSGSGQVQLVESGGGLVQPGGSLRLSCAASGFTFSRYGMHWVRQAPGKGLEWVSGISSIGSNTYYADSVKGRFTISRDNSKNTLYLQMNSLRAEDTAVYYCARWYKTYIDVWGQGTLVTVSSGGGGSGGGGSGGGGSDIELTQPPSVSVAPGQTARISCSGDNLGKKYVYWYQQKPGQAPVLVIYGDDERPSGIPERFSGSNSGNTATLTISGTQAEDEADYYCASYDSSHILIVFGGGTKLTVLGSGSGDKTHTCPPCPAPEAAGGPSVFLFPPKPKDTLMISRTPEVTCVVVDVSHEDPEVKFNWYVDGVEVHNAKTKPREEQYNSTYRVVSVLTVLHQDWLNGKEYKCKVSNKALGAPIEKTISKAKGQPREPQVYTLPPSREEMTKNQVSLTCLVKGFYPSDIAVEWESNGQPENNYKTTPPVLDSDGSFFLYSKLTVDKSRWQQGNVFSCSVMHEALHNHYTQKSLSLSPGK
notes: 0FZD:2LRP control
B1: binds (LRP6E3E4 [1]).

B2: L1:5:αGFP:Fc (bispecific antibody)
chain: DVKLVESGGGLVKLGGSLRLSCAASGFSFSTSYMSWVRQTPEKRLELVAAINLNGGSTYYSDTVKGRFTISRDNAKNTLYLQMSSLKSEDTAFYYCASELAGYGTPFAYWGQGTLVTVSAGSAASGSSGGSSSGADIVLTQSPATLSVTPGDSVSLSCKASQSISYNLHWYQQKSHESPRLLIKYTSQSISGIPSRFSGSGSGTDFTLTINNVETEDFGMYFCQQSNSWPLTFGAGTKLEVKGSGSGQVQLVESGGGLVQPGGSLRLSCAASGFTFSRYGMHWVRQAPGKGLEWVSGISSIGSNTYYADSVKGRFTISRDNSKNTLYLQMNSLRAEDTAVYYCARWYKTYIDVWGQGTLVTVSSGGGGSGGGGSGGGGSDIELTQPPSVSVAPGQTARISCSGDNLGKKYVYWYQQKPGQAPVLVIYGDDERPSGIPERFSGSNSGNTATLTISGTQAEDEADYYCASYDSSHILIVFGGGTKLTVLGSGSGDKTHTCPPCPAPEAAGGPSVFLFPPKPKDTLMISRTPEVTCVVVDVSHEDPEVKFNWYVDGVEVHNAKTKPREEQYNSTYRVVSVLTVLHQDWLNGKEYKCKVSNKALGAPIEKTISKAKGQPREPQVYTLPPSREEMTKNQVSLTCLVKGFYPSDIAVEWESNGQPENNYKTTPPVLDSDGSFFLYSKLTVDKSRWQQGNVFSCSVMHEALHNHYTQKSLSLSPGK
notes: 0FZD:2LRP control
B2: binds (LRP6E1E2).

B3: αGFP:5:L1:Fc (bispecific antibody)
chain: QVQLVESGGGLVQPGGSLRLSCAASGFTFSRYGMHWVRQAPGKGLEWVSGISSIGSNTYYADSVKGRFTISRDNSKNTLYLQMNSLRAEDTAVYYCARWYKTYIDVWGQGTLVTVSSGGGGSGGGGSGGGGSDIELTQPPSVSVAPGQTARISCSGDNLGKKYVYWYQQKPGQAPVLVIYGDDERPSGIPERFSGSNSGNTATLTISGTQAEDEADYYCASYDSSHILIVFGGGTKLTVLGSGSGDVKLVESGGGLVKLGGSLRLSCAASGFSFSTSYMSWVRQTPEKRLELVAAINLNGGSTYYSDTVKGRFTISRDNAKNTLYLQMSSLKSEDTAFYYCASELAGYGTPFAYWGQGTLVTVSAGSAASGSSGGSSSGADIVLTQSPATLSVTPGDSVSLSCKASQSISYNLHWYQQKSHESPRLLIKYTSQSISGIPSRFSGSGSGTDFTLTINNVETEDFGMYFCQQSNSWPLTFGAGTKLEVKGSGSGDKTHTCPPCPAPEAAGGPSVFLFPPKPKDTLMISRTPEVTCVVVDVSHEDPEVKFNWYVDGVEVHNAKTKPREEQYNSTYRVVSVLTVLHQDWLNGKEYKCKVSNKALGAPIEKTISKAKGQPREPQVYTLPPSREEMTKNQVSLTCLVKGFYPSDIAVEWESNGQPENNYKTTPPVLDSDGSFFLYSKLTVDKSRWQQGNVFSCSVMHEALHNHYTQKSLSLSPGK
notes: 0FZD:2LRP control
B3: binds (LRP6E1E2).

B4: L2:5:F3_His (bispecific antibody)
chain: EVQLVESGGGLVQPGGSLRLSCAASGFTFTSYYISWVRQAPGKGLEWVAEISPYSGSTYYADSVKGRFTISADTSKNTAYLQMNSLRAEDTAVYYCALRARPPIRLHPRGSVMDYWGQGTLVTVSSGSAASGSSGGSSSGADIQMTQSPSSLSASVGDRVTITCRASQDVSTAVAWYQQKPGKAPKLLIYSASFLYSGVPSRFSGSGSGTDFTLTISSLQPEDFATYYCQQSYTTPPTFGQGTKVEIKGSGSGEVQLVESGGGLVQPGGSLRLSCAASGFNISYSYIHWVRQAPGKGLEWVASIYSSSGSTSYADSVKGRFTISADTSKNTAYLQMNSLRAEDTAVYYCARGAIDYWGQGTLVTVSSGGGGSGGGGSGGGGSDIQMTQSPSSLSASVGDRVTITCRASQSVSSAVAWYQQKPGKAPKLLIYSASSLYSGVPSRFSGSRSGTDFTLTISSLQPEDFATYYCQQWYSSGHVLITFGQGTKVEIKGSGSGHHHHHH
notes: 1:1 tandem scFv
B4: binds (FZD8 CRD); binds (LRP6E3E4 [2]).

B5: αGFP:5:L2:Fc (bispecific antibody)
chain: QVQLVESGGGLVQPGGSLRLSCAASGFTFSRYGMHWVRQAPGKGLEWVSGISSIGSNTYYADSVKGRFTISRDNSKNTLYLQMNSLRAEDTAVYYCARWYKTYIDVWGQGTLVTVSSGGGGSGGGGSGGGGSDIELTQPPSVSVAPGQTARISCSGDNLGKKYVYWYQQKPGQAPVLVIYGDDERPSGIPERFSGSNSGNTATLTISGTQAEDEADYYCASYDSSHILIVFGGGTKLTVLGSGSGEVQLVESGGGLVQPGGSLRLSCAASGFTFTSYYISWVRQAPGKGLEWVAEISPYSGSTYYADSVKGRFTISADTSKNTAYLQMNSLRAEDTAVYYCALRARPPIRLHPRGSVMDYWGQGTLVTVSSGSAASGSSGGSSSGADIQMTQSPSSLSASVGDRVTITCRASQDVSTAVAWYQQKPGKAPKLLIYSASFLYSGVPSRFSGSGSGTDFTLTISSLQPEDFATYYCQQSYTTPPTFGQGTKVEIKGSGSGDKTHTCPPCPAPEAAGGPSVFLFPPKPKDTLMISRTPEVTCVVVDVSHEDPEVKFNWYVDGVEVHNAKTKPREEQYNSTYRVVSVLTVLHQDWLNGKEYKCKVSNKALGAPIEKTISKAKGQPREPQVYTLPPSREEMTKNQVSLTCLVKGFYPSDIAVEWESNGQPENNYKTTPPVLDSDGSFFLYSKLTVDKSRWQQGNVFSCSVMHEALHNHYTQKSLSLSPGK
notes: 0FZD:2LRP control
B5: binds (LRP6E3E4 [1]).

B6: F3:5:L2_His (bispecific antibody)
chain: EVQLVESGGGLVQPGGSLRLSCAASGFNISYSYIHWVRQAPGKGLEWVASIYSSSGSTSYADSVKGRFTISADTSKNTAYLQMNSLRAEDTAVYYCARGAIDYWGQGTLVTVSSGGGGSGGGGSGGGGSDIQMTQSPSSLSASVGDRVTITCRASQSVSSAVAWYQQKPGKAPKLLIYSASSLYSGVPSRFSGSRSGTDFTLTISSLQPEDFATYYCQQWYSSGHVLITFGQGTKVEIKGSGSGEVQLVESGGGLVQPGGSLRLSCAASGFTFTSYYISWVRQAPGKGLEWVAEISPYSGSTYYADSVKGRFTISADTSKNTAYLQMNSLRAEDTAVYYCALRARPPIRLHPRGSVMDYWGQGTLVTVSSGSAASGSSGGSSSGADIQMTQSPSSLSASVGDRVTITCRASQDVSTAVAWYQQKPGKAPKLLIYSASFLYSGVPSRFSGSGSGTDFTLTISSLQPEDFATYYCQQSYTTPPTFGQGTKVEIKGSGSGHHHHHH
notes: 1:1 tandem scFv
B6: binds (FZD8 CRD); binds (LRP6E3E4 [2]).
